Reference: patent CN101098892A (HOFFMANN LA ROCHE, dated 2008)

How the values were obtained:
[1] = biological target: 猕猴IL-13Rα1 (转染的Ba/F3细胞) (猕猴 (Cyno)); assay: FACS, transfected against parental Ba/F3 cells, secondary antibody alone
[2] = biological target: 猕猴IL-13Rα1 (转染的Ba/F3细胞) (猕猴 (Cyno)); assay: FACS on Ba/F3 cells transfected with cynomolgus IL-13Rα1, secondary antibody alone
[3] = biological target: IL-13Rα1 (人B细胞、单核细胞、TF-1细胞、HFL-1细胞、支气管平滑肌细胞上) (human) (UniProt P78552); assay: cell-based or functional assay
[4] = biological target: 猕猴IL-13Rα1 (转染的Ba/F3细胞) (猕猴 (Cyno)); assay: FACS, transfected against parental Ba/F3 cells
[5] = biological target: 猕猴IL-13Rα1 (转染的Ba/F3细胞) (猕猴 (Cyno)); assay: FACS on Ba/F3 cells transfected with cynomolgus IL-13Rα1
[6] = biological target: 人IL-13Rα1 (表达人IL-13Rα1和人IL-4Rα的CHO细胞) (human) (UniProt P78552); assay: displacement of 125I-IL-13 from CHO cells expressing human IL-13Rα1 and IL-4Rα
[7] = biological target: 猕猴IL-13Rα1 (转染的Ba/F3细胞) (猕猴 (Cyno)); assay: FACS, transfected against parental Ba/F3 cells, negative control
[8] = biological target: 猕猴IL-13Rα1 (转染的Ba/F3细胞) (猕猴 (Cyno)); assay: FACS on Ba/F3 cells transfected with cynomolgus IL-13Rα1, negative control
[9] = biological target: T1, IL-13Rα1 (人B细胞、单核细胞、TF-1细胞、HFL-1细胞、支气管平滑肌细胞上) (human, UniProt P78552 22-427); assay: cell-based or functional assay
T1 sequence (looked up): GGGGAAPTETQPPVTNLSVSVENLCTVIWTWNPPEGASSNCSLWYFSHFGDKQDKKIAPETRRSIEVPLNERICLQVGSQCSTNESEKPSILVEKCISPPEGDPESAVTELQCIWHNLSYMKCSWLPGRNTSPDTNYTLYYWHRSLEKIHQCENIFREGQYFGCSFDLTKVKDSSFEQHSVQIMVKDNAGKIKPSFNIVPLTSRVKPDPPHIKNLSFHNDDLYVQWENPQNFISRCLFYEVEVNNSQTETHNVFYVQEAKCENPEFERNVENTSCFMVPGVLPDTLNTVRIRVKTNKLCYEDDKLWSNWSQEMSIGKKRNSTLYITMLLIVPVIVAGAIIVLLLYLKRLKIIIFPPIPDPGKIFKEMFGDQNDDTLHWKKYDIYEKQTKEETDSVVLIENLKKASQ

[10] = biological target: 猕猴IL-13Rα1 (转染的Ba/F3细胞) (猕猴 (Cyno)); assay: FACS, transfected against parental Ba/F3 cells; remark: listed apart in the source
[11] = biological target: 猕猴IL-13Rα1 (转染的Ba/F3细胞) (猕猴 (Cyno)); assay: FACS on Ba/F3 cells transfected with cynomolgus IL-13Rα1, 10 μg/ml antibody
[12] = biological target: T2, 从hIL-13Rα1:hFc嵌合蛋白切割的hIL-13Rα1的细胞外结构域 (human, UniProt P78552 22-343); assay: SPR Biacore 3000, C1 chip, antibody captured by anti-hFcγ, cleaved hIL-13Rα1 ECD as analyte, 1:1 Langmuir
T2 construct: extracellular domain; also called 切割的hIL-13Rα1分子
T2 sequence (looked up): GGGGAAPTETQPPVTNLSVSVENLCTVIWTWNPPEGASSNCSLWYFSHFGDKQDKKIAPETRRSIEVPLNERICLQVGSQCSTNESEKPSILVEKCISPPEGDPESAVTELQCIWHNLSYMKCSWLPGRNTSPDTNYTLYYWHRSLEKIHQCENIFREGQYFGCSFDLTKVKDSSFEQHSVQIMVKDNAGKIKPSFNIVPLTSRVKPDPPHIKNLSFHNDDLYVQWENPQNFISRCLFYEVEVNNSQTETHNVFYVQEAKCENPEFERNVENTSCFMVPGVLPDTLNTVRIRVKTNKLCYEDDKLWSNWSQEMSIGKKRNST

[13] = biological target: 猕猴IL-13Rα1 (转染的Ba/F3细胞) (猕猴 (Cyno)); assay: FACS on Ba/F3 cells transfected with cynomolgus IL-13Rα1, 10 μg/ml antibody; remark: listed apart in the source

Work on 仅抗人IgG-FITC (antibody) yielded a 在Cyno IL-13Rα1存在下MFI的增加倍数 [1] of 2.2 and an MFIBa/F3 Cyno IL-13Rα1 [2] of 5.5 MFI.

“多克隆山羊抗人IL-13Rα1抗体AF152(R&D Systems) (antibody)” showed a B淋巴细胞上CD23上调的抑制 IC50 [3] of 13.6 nM, an IL-4诱导的增殖的IC50 [3] of 74.4 nM and an IL-13诱导的Stat-6磷酸化的抑制 IC50 [3] of 18.6 nM. For the same molecule, the IL-13诱导的TF-1细胞增殖的抑制 IC50 [3] was 13.5 nM, the 人单核细胞上IL-13诱导的CD23上调的抑制 IC50 [3] was 62.9 nM and the 抑制嗜曙红粒细胞趋化因子释放 平均IC50 [3] was 11.5 nM. For the same molecule, the 在Cyno IL-13Rα1存在下MFI的增加倍数 [4] was 18, the MFIBa/F3 Cyno IL-13Rα1 [5] was 21.2 MFI and the IC50 [6] was 84.8 nM.

正常人IgG1(Nordic) (antibody) was tested, and the 在Cyno IL-13Rα1存在下MFI的增加倍数 [7] was 6.7 and the MFIBa/F3 Cyno IL-13Rα1 [8] was 10.2 MFI.

正常山羊IgG (antibody) gave a 在Cyno IL-13Rα1存在下MFI的增加倍数 [7] of 2.4 and an MFIBa/F3 Cyno IL-13Rα1 [8] of 5.7 MFI.

B1: HuMab LC5002-002 (antibody, human IgG1, V domains shown)
VH: EVQLLESGGGLVQPGGSLRLSCAASGFTFNIYAMNWVRQAPGKGLEWVVISGRGITTYYADSVKGRFTISRDNSKNTLYLQMNSLRADDTAVYYCAKGSSSWTDFDYWGQGTLVTVSS
VL: DIQMTQSPSSLSASVGDRVTITCRASQGISRWVAWYQQKPEKAPKSLIYAASSLQSGVPSRFSGSGSGTDFTLTISSLQPEDFATYYCQQYNSYPWTFGQGTKVEIK
notes: Human IgG1 kappa antibody from a HuMab mouse hybridoma; also called hu-MAB<h-IL-13Ralpha>LC.5002-002 (DSM ACC2709)
B1 was tested, and the “IL-13诱导的TF-1细胞增殖的抑制 IC50” value [9] was 9.21 nM, the 在Cyno IL-13Rα1存在下MFI的增加倍数 [10] was 79.8 and the MFIBa/F3 Cyno IL-13Rα1 [11] was 83.7 MFI. It also gave a Kd [12] of 0.62 nM, a koff [12] of 0.00065 s⁻¹ and a kon [12] of 1.1e+06 M⁻¹ s⁻¹.

B2: HuMab LC5002-003 (antibody, V domains shown)
VH: EVQLLESGGDLIQPGGSLRLSCAASGFTFNIYAMNWVRQAPGKGLEWVSVISGRGITTYYADSVKGRFTISRDNSKNTLYLQMDSLRAEDTAVYYCAKGSSYWTDFDYWGQGTLVTVSS
VL: DIQMTQSPSSLSASVGDRVTITCRASQGISSWLAWYQQKPEKAPKSLIYAASSLQSGVPSRFSGSGSGTDFTLTISSLQPEDFATYYCQQYNSYPWTFGQGTKVEIK
In the case of B2, the “IL-13诱导的Stat-6磷酸化的抑制 IC50” value [9] is reported as 5.98 nM, the “IL-13诱导的TF-1细胞增殖的抑制 IC50” value [9] is reported as 3.07 nM and the 在Cyno IL-13Rα1存在下MFI的增加倍数 [4] is reported as 79. It also gave an MFIBa/F3 Cyno IL-13Rα1 [13] of 82.4 MFI.
